Test results from article PMC4829874.

Target: protein A/G
Test: SPR; real-time, microfluidic cell on the nanostructured gold film, white light and CCD detector, 0.1 Hz; protein A/G (0.5 mg/mL, 1 h, 30 uL/min) immobilised, flushed with PBS; IgG 10 ug/mL injected at 30 uL/min; 10 mM PBS

IgG (antibody) showed a resonance peak shift at 10 ug/mL IgG of 2 nm.
